Reference: the supplement of paper PMC10567573

B1: INTS4 (parent)
chain: AKQIMEETYKMEFMYSGVENKQVV
B2: ATL3 (parent)
chain: EKALASILLQDHIRDLDVVVVSVA

Variants of: B1
Assay: protein stability index of a GFP-peptide fusion (GPS, HEK-293T) (PSI 1-6); higher = more stable
Conditions: c terminus: a fixed tail appended
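Further: lentivirally expressed fusions sorted by FACS into six bins by GFP to DsRed ratio, PSI derived from sequencing read proportions per bin multiplied by bin number.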

Variant | protein stability index
AKQIMEETYKMEFMNSGVENKQVV | 2.31
AKQIMEETYKMEFMCSGVENKQVV | 1.93
AKQIMEETYKMEFMKSGVENKQVV | 2.62
AKQIMEETYPMEFMYSGVENKQVV | 3.79
AKQIMEETYRMEFMYSGVENKQVV | 3.13
AKQIMEETYSMEFMYSGVENKQVV | 1.81
AKQIMEETYYMEFMYSGVENKQVV | 2.14
AKQIMEETYNMEFMYSGVENKQVV | 1.32
AKQIMEETYQMEFMYSGVENKQVV | 1.67
AKQIMEETYVMEFMYSGVENKQVV | 2.64
AKQNMEETYKMEFMYSGVENKQVV | 2.58
AKQVMEETYKMEFMYSGVENKQVV | 2.42
AKQDMEETYKMEFMYSGVENKQVV | 2.92
AKQPMEETYKMEFMYSGVENKQVV | 3.39
AKQKMEETYKMEFMYSGVENKQVV | 2.38
AKQEMEETYKMEFMYSGVENKQVV | 3.46
AKQTMEETYKMEFMYSGVENKQVV | 2.9
AKQSMEETYKMEFMYSGVENKQVV | 2.99
AKQFMEETYKMEFMYSGVENKQVV | 3
AKQAMEETYKMEFMYSGVENKQVV | 2.39
ARQIMEETYKMEFMYSGVENKQVV | 1.4
ADQIMEETYKMEFMYSGVENKQVV | 3.15
AWQIMEETYKMEFMYSGVENKQVV | 3.22
AKQIMEETYKMEFMYSGVENKQSV | 1.76
AKQIMEETYKMEFMYSGVENKQCV | 1.6

Variant | protein stability index
AKQIMEETYKMEFMYSGVENKQGV | 1.32
AKQIMEETYKMEFMYSGVENKQNV | 2.18
AKQIMEETYKMEFMYSGVENKQPV | 1.42
AKQIMEETYKMEFMYSGVENKQRV | 1.95
AKQIMEETYKMEFMYSGVENKQMV | 3.75
AKQIMEEQYKMEFMYSGVENKQVV | 2.19
AKQIMEEKYKMEFMYSGVENKQVV | 2.85
AKQIMEEGYKMEFMYSGVENKQVV | 1.41
AKQIMEEEYKMEFMYSGVENKQVV | 2.69
AKQIMEEVYKMEFMYSGVENKQVV | 1.89
AKQIMEECYKMEFMYSGVENKQVV | 1.52
AKQIMEEYYKMEFMYSGVENKQVV | 1.92
AKQIMEEPYKMEFMYSGVENKQVV | 3.46
AKQIMEENYKMEFMYSGVENKQVV | 2.42
AKQIMEEFYKMEFMYSGVENKQVV | 1.64
AKQIMEEIYKMEFMYSGVENKQVV | 1.28
AKQIMEETYKMEFGYSGVENKQVV | 2.43
AKQIMEETYKMEFCYSGVENKQVV | 1.98
AKQIMEETYKMEFLYSGVENKQVV | 2.17
AKQIMEETYKMEFTYSGVENKQVV | 1.63
AKQIMEETYKMEFYYSGVENKQVV | 1.25
AKQIMEETYKMEFAYSGVENKQVV | 2.25
AKQIMEETYKMEVMYSGVENKQVV | 1.67
AKQIMEETYKMEWMYSGVENKQVV | 1.79
AKQIMEETYKMEEMYSGVENKQVV | 4.3

Variant | protein stability index
AKQIMEETYKMESMYSGVENKQVV | 4.24
AKQIMEETYKMECMYSGVENKQVV | 2.96
AKQIMEETYKMEHMYSGVENKQVV | 4.01
AKQIMEETYKMENMYSGVENKQVV | 4.04
AKQIMTETYKMEFMYSGVENKQVV | 1.76
AKQIMKETYKMEFMYSGVENKQVV | 1.89
AKQIMWETYKMEFMYSGVENKQVV | 2.12
AKQIMNETYKMEFMYSGVENKQVV | 2.12
AKQIMFETYKMEFMYSGVENKQVV | 2.01
AKQIMQETYKMEFMYSGVENKQVV | 1.77
AKQIMHETYKMEFMYSGVENKQVV | 2.21
AKQIMVETYKMEFMYSGVENKQVV | 2.54
SKQIMEETYKMEFMYSGVENKQVV | 2.82
WKQIMEETYKMEFMYSGVENKQVV | 2.44
CKQIMEETYKMEFMYSGVENKQVV | 1.86
HKQIMEETYKMEFMYSGVENKQVV | 2.72
QKQIMEETYKMEFMYSGVENKQVV | 2.52
DKQIMEETYKMEFMYSGVENKQVV | 3.46
FKQIMEETYKMEFMYSGVENKQVV | 1.04
TKQIMEETYKMEFMYSGVENKQVV | 2.8
LKQIMEETYKMEFMYSGVENKQVV | 2.44
KKQIMEETYKMEFMYSGVENKQVV | 2.68
AKQIMEETYKMEFMYSGVENGQVV | 2.5
AKQIMEETYKMEFMYSGVENKCVV | 2.97
AKQIMEETYKMEFMYSGVENKNVV | 1.31

Variant | protein stability index
AKGIMEETYKMEFMYSGVENKQVV | 3.49
AKNIMEETYKMEFMYSGVENKQVV | 1.68
AKCIMEETYKMEFMYSGVENKQVV | 1.42
AKIIMEETYKMEFMYSGVENKQVV | 2.17
AKSIMEETYKMEFMYSGVENKQVV | 2.35
AKQIMEYTYKMEFMYSGVENKQVV | 2.21
AKQIMETTYKMEFMYSGVENKQVV | 1.96
AKQIMENTYKMEFMYSGVENKQVV | 1.9
AKQIMEWTYKMEFMYSGVENKQVV | 3.34
AKQIMEQTYKMEFMYSGVENKQVV | 1.86
AKQIMEITYKMEFMYSGVENKQVV | 2.35
AKQIMEETYKMEFMYSGVTNKQVV | 1.85
AKQIMEETYKMEFMYSGVKNKQVV | 1.07
AKQIMEETYKMEFMYSGVHNKQVV | 2.06
AKQIMEETYKMEFMYSGVQNKQVV | 1.84
AKQIMEETYKMEFMYSGVYNKQVV | 1.09
AKQIMEETYKMEFMYSGVNNKQVV | 1.91
AKQIMEETYKMEFMYSGVLNKQVV | 1.2
AKQIMEETYKMEFMYSGVINKQVV | 1.54
AKQIMEETVKMEFMYSGVENKQVV | 3.1
AKQIMEETQKMEFMYSGVENKQVV | 4.41
AKQIMEETPKMEFMYSGVENKQVV | 3.78
AKQIMEETWKMEFMYSGVENKQVV | 2.18
AKQIMEETTKMEFMYSGVENKQVV | 3.87
AKQIMEETAKMEFMYSGVENKQVV | 3.9

Variant | protein stability index
AKQIMEETIKMEFMYSGVENKQVV | 2.02
AKQIMEETNKMEFMYSGVENKQVV | 4.24
AKQIMEETLKMEFMYSGVENKQVV | 2.67
AKQIMEETSKMEFMYSGVENKQVV | 3.9
AKQIMEETMKMEFMYSGVENKQVV | 3.43
AKQIMEETYKMEFMYSGEENKQVV | 2.78
AKQIMEETYKMEFMYSGQENKQVV | 2.34
AKQIMEETYKMEFMYSGKENKQVV | 2.72
AKQIMEETYKVEFMYSGVENKQVV | 1.9
AKQIMEETYKQEFMYSGVENKQVV | 3.2
AKQIMEETYKKEFMYSGVENKQVV | 3.44
AKQIMEETYKTEFMYSGVENKQVV | 2.9
AKQIMEETYKSEFMYSGVENKQVV | 2.37
AKQIMEETYKMEFMYSGVENKQVP | 2.54
AKQIMEETYKMEFMYSGVENKQVN | 2.44
AKQIMEETYKMEFMYSGVENKQVK | 1.98
AKQIMEETYKMEFMYSGVENKQVA | 1.75
AKQIMEETYKMEFMYSGVENKQVE | 1.78
AKQIMEETYKMEFMYSGVENKQVH | 1.65
AKQIMEETYKMEFMYSAVENKQVV | 1.51
AKQIMEETYKMEFMYSDVENKQVV | 1.84
AKQIMEETYKMEFMYSLVENKQVV | 1.49
AKQIMEETYKMEFMYSPVENKQVV | 1.29
AKQIMEETYKMEFMYSSVENKQVV | 1.59
AKQIMEETYKMEFMYSCVENKQVV | 2.87

Variant | protein stability index
AKQIMEETYKMEFMYSMVENKQVV | 1.65
AKQIMEETYKMQFMYSGVENKQVV | 2.42
AKQIMEETYKMCFMYSGVENKQVV | 1.6
AKQIMEETYKMHFMYSGVENKQVV | 2.32
AKQIMEETYKMSFMYSGVENKQVV | 1.61
AKQIMEETYKMWFMYSGVENKQVV | 2.48
AKQIMEETYKMAFMYSGVENKQVV | 2.97
AKQIMEETYKMNFMYSGVENKQVV | 1.81
AKQIMEETYKMMFMYSGVENKQVV | 2.43
AKQIMEETYKMYFMYSGVENKQVV | 2.44
AKQIMEETYKMEFMYSGVEHKQVV | 1.59
AKQIMEETYKMEFMYSGVEQKQVV | 2.84
AKQIMEETYKMEFMYDGVENKQVV | 1.86
AKQIMEETYKMEFMYAGVENKQVV | 2.15
AKQIMEETYKMEFMYPGVENKQVV | 2
AKQIMEETYKMEFMYNGVENKQVV | 1.98
AKQIMEETYKMEFMYHGVENKQVV | 1.41
AKQIMEETYKMEFMYCGVENKQVV | 2.1
AKQIMEETYKMEFMYIGVENKQVV | 2.62
AKQIDEETYKMEFMYSGVENKQVV | 3.99
AKQIPEETYKMEFMYSGVENKQVV | 2.54
AKQIFEETYKMEFMYSGVENKQVV | 1.79
AKQIHEETYKMEFMYSGVENKQVV | 2.76
AKQIREETYKMEFMYSGVENKQVV | 2.87

Variants of: B2
Assay: as above
Conditions: c terminus: a fixed tail appended

Variant | protein stability index
EKALASILLQDHIRDDDVVVVSVA | 1.67
EKALASILLQDHIRDQDVVVVSVA | 1.37
NKALASILLQDHIRDLDVVVVSVA | 2.93
HKALASILLQDHIRDLDVVVVSVA | 2.05
EKALASILLQDHIRDLDVVVQSVA | 2.6
EKALASILLQDHIRDLDVVVDSVA | 3.39
EKALASILLQDHIRDLDVVNVSVA | 3.1
EKALASILLQDHIRDLDVVAVSVA | 1.58
EKALASILLQDHIRDLDVVEVSVA | 2.89
EKALASILLQDHIRDLDVVRVSVA | 2.2
EKALASILLQDHIRDLDVVQVSVA | 2.1
EKALASILLQDHIRDLDVVVVSHA | 1.19
EKALASILLQDHIRDLDVAVVSVA | 1.64
EKALASILLQDHIRDLDVVVVPVA | 1.91
EKALASILLQDHIRDLDVVVVLVA | 2.02
EKALASILLQDHIRDLDDVVVSVA | 2.74
EKALASILLQDHIRDLDKVVVSVA | 2.27
EKALASILLQDHIRDLDIVVVSVA | 2.02
EKALASDLLQDHIRDLDVVVVSVA | 2.51
EKALASHLLQDHIRDLDVVVVSVA | 2.31

Variant | protein stability index
EKALASELLQDHIRDLDVVVVSVA | 2.37
EKALASALLQDHIRDLDVVVVSVA | 2.62
EKALASKLLQDHIRDLDVVVVSVA | 2.32
EKALAKILLQDHIRDLDVVVVSVA | 2.18
EKALASILLQDHTRDLDVVVVSVA | 3.04
EKALASILLQDPIRDLDVVVVSVA | 2.97
EKALNSILLQDHIRDLDVVVVSVA | 3.63
EKALASILLQDHIKDLDVVVVSVA | 3.11
EKAQASILLQDHIRDLDVVVVSVA | 1.69
EKAKASILLQDHIRDLDVVVVSVA | 3.04
EKADASILLQDHIRDLDVVVVSVA | 2.61
EKALASIILQDHIRDLDVVVVSVA | 2.89
EKALASIALQDHIRDLDVVVVSVA | 2.99
EKALASIGLQDHIRDLDVVVVSVA | 2.62
EKALASIELQDHIRDLDVVVVSVA | 1.98
EKALASIWLQDHIRDLDVVVVSVA | 3.89
EKALASILLQDHIRVLDVVVVSVA | 2.55
EKALASILLQDHIRDLQVVVVSVA | 1.93
EKALASILLQDHIRDLMVVVVSVA | 2.05
